Assay results published in the supplement of paper PMC9732359.
± gives the uncertainty stated by the source.

Experiment: protein stability index of a GFP-peptide fusion (yeast GPS) (PSI 1-4); higher = more stable; sorted into four equal gates, so the index is relative within each strain
In short: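 The protein stability index of a peptide was calculated by multiplying its read frequency in each gate by that gate's number and adding the products. The peptides were tiled 17-residue stretches of yeast proteins, fused downstream of GFP on a Cherry-expressing plasmid and carried in yeast as a pooled library. Mid-log cultures in leucine-free medium were sorted into four equal gates by GFP/Cherry ratio, and each gate's plasmids were PCR-amplified and Illumina-sequenced.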

Sequence | protein stability index (doa10∆) | protein stability index (pdr5∆) | protein stability index (san1∆) | protein stability index (ubr1∆)
SQPFIKFLNFRPPNGIK [SSN2] | 2.65 ± 0.052 | 2.31 ± 0.05 | 2.23 ± 0.06 | 2.4 ± 0.039
SQSACREMALCRELHNK [SSN3] | 2.42 ± 0.089 | 2.38 ± 0.073 | 2.55 ± 0.11 | 2.8 ± 0.067
SQTQLENANAANNGAAF [MED2] | 2.71 ± 0.054 | 2.75 ± 0.051 | 2.85 ± 0.053 | 1.74 ± 0.032
SQVVETHKVTDIYSHEY [YMR129W/POM152] | 2.75 ± 0.083 | 2.77 ± 0.089 | 2.68 ± 0.073 | 2.83 ± 0.15
SRGINKGHKFNNTKAGR [RPL15A] | 3.28 ± 0.29 | 3 ± 0.2 |  | 3.4 ± 0.17
SRILKAQSRNVEIEKRI [YGR119C/NUP57] | 3.39 ± 0.07 | 3.15 ± 0.066 | 2.98 ± 0.067 | 2.67 ± 0.053
SRKQKIAKTFTVDVSSP [RPL22A] | 2.81 ± 0.08 | 3.1 ± 0.077 | 2.95 ± 0.069 | 2.68 ± 0.05
SRPGQSGRCDGYILEGE [RPS8A] | 3.38 ± 0.19 | 3.49 ± 0.17 | 3.3 ± 0.17 | 3.38 ± 0.049
SRPLKKVKILEQIDENW [SWI3] | 2.94 ± 0.077 | 3.11 ± 0.067 | 2.82 ± 0.072 | 2.99 ± 0.044
SRTDAVRCKDCGHRILL [RPC10] | 2.62 ± 0.16 | 3.31 ± 0.19 | 2.66 ± 0.13 | 3.02 ± 0.078
SRTRAHAQSKREGRHSG [RPL19A] | 2.87 ± 0.076 | 2.85 ± 0.07 | 2.83 ± 0.042 | 2.99 ± 0.037
SSAAILGLGIAFAGSKN [RPN1] | 1.35 ± 0.081 | 1.94 ± 0.097 | 2.03 ± 0.29 | 1.34 ± 0.092
SSDALSKEKANFLETIA [SIR4] | 1.49 ± 0.057 | 1.68 ± 0.046 | 1.38 ± 0.091 | 1.52 ± 0.048
SSHLSDNDFIINDFKKI [POP5] | 3.06 ± 0.077 | 2.73 ± 0.067 | 2.75 ± 0.055 | 2.74 ± 0.036
SSKAATPDTKNFFHAKK [SNF12] | 3.12 ± 0.058 | 2.96 ± 0.051 | 2.99 ± 0.048 | 2.93 ± 0.047
SSNASFNNQGKLDLFKY [MED1] | 2.93 ± 0.039 | 3.03 ± 0.038 | 2.71 ± 0.032 | 3.04 ± 0.041
SSNCHVRQKIKTLKRMI [POP1] | 1.41 ± 0.04 | 1.75 ± 0.053 | 1.42 ± 0.091 | 2.01 ± 0.045
SSNIAGTNPLSSDGAYT [SSN2] | 3.04 ± 0.13 | 2.73 ± 0.17 | 3.03 ± 0.062 | 3.33 ± 0.12
SSRTKFWSFLDSLIFKD [YJL039C/NUP192] | 2.78 ± 0.18 | 2.87 ± 0.17 |  | 2.72 ± 0.12
SSSANKLLQLFLTPMDS [YML103C/NUP188] | 1.81 ± 0.052 | 1.61 ± 0.059 | 1.64 ± 0.085 | 1.41 ± 0.042
SSTDEESWFKALAGSEI [FAS1] | 3.32 ± 0.12 | 3.34 ± 0.14 | 3.11 ± 0.11 | 3.3 ± 0.081
SSTGNANTSNNLFGATA [YJL041W/NSP1] | 3.44 ± 0.084 | 3.31 ± 0.049 | 3.3 ± 0.051 | 3.29 ± 0.056
SSVKCFGPIKVELPTKE [FAS1] | 2.5 ± 0.069 | 1.98 ± 0.05 | 2.56 ± 0.057 | 1.97 ± 0.057
SSWQIYSDENDPSISNN [RRP4] | 2.48 ± 0.12 | 3.16 ± 0.11 | 3.06 ± 0.072 | 3.33 ± 0.14
STGPTGAVSLNPSITRL [RRP4] | 2.92 ± 0.057 | 3.05 ± 0.074 | 2.88 ± 0.042 | 3.06 ± 0.05
STKFDYPPMPFDGFLFG [FAS1] | 2.56 ± 0.046 | 2.63 ± 0.051 | 2.68 ± 0.063 | 2.68 ± 0.037
